What was measured:
[1] = biological target: T1, recombinant human VISTA (His-tagged) (human, UniProt Q9H7M9 33-194); experiment: BLI (Octet QK384): His-tagged human VISTA on anti-Penta-HIS tips, V4 as analyte; value of the line above the sensorgram, which differs from the table below it
T1 construct: bought soluble protein (Sino Biological); also called hVISTA; human VISTA polypeptide
Procedure: All measurements were performed at 25° C. with agitation at 1000 rpm. Kinetic measurements for antigen binding were performed by loading anti-VISTA antibody at different concentrations (indicated in the Figures) for 120 s, followed by a 120 s dissociation time by transferring the biosensors into assay buffer containing wells. Sensograms were referenced for buffer effects and then fitted using the Octet QK384 user software (Pall ForteBio, USA).
Kinetic responses were subjected to a global fitting using a one site binding model to obtain values for association (kon), dissociation (koff) rate constants and the equilibrium dissociation constant (KD). Only curves that could be reliably fitted with the software (R²>0.90) were included in the analysis.

[2] = biological target: T1, recombinant human VISTA (His-tagged); experiment: antigen-binding ELISA; reference standard run with the day 30 samples
[3] = biological target: T1, recombinant human VISTA (His-tagged); experiment: antigen-binding ELISA; HMBD-002 in F10, day 20 at 40°C
[4] = biological target: T1, recombinant human VISTA (His-tagged); experiment: antigen-binding ELISA; HMBD-002 in F6, day 20 at 40°C
[5] = biological target: T1, recombinant human VISTA (His-tagged); experiment: ELISA on coated human VISTA, antibody diluted in buffer of pH 5.5
Procedure: (§1) 384-well plates were coated with 1 μg/ml of target antigen diluted in PBS for 16 hrs at 4° C. […] After washing, plates were developed with colorimetric detection substrate 3,3′,5,5′-tetramethylbenzidine (Turbo-TMB; Pierce) for 10 min.

human CTLA4 = human CTLA4 (human, UniProt P16410 36-162); experiment: ELISA, plate coated with human CTLA-4, antibody titrated
Procedure: as §1

[6] = biological target: T2, cynomolgus macaque VISTA expressed on cells (cynomolgus macaque, UniProt A0A7N9IB00 33-311); experiment: flow cytometry, endogenous VISTA on CD11b+ myeloid cells of NHP PBMCs
T2 construct: whole, on cells; also called NHP VISTA on HEK293T cells; VISTA on NHP CD11b+ myeloid cells
Procedure: To identify myeloid cells, PBMCs were further incubated with CD45 FITC and CD11b PE. Cells were washed again and resuspended in 200 μL of FACS flow buffer (PBS with 5 mM EDTA) for flow cytometric analysis using MACSQuant 10 (Miltenyi). After acquisition, all raw data were analyzed using Flowlogic software. Cells were gated using forward and side scatter, and the percentage of positive cells was determined.

[7] = biological target: T1, recombinant human VISTA (His-tagged); experiment: antigen-binding ELISA; HMBD-002 in F1, day 20 at 40°C
[8] = biological target: T1, recombinant human VISTA (His-tagged); experiment: antigen-binding ELISA; HMBD-002 in F10, day 10 at 40°C
[9] = biological target: T1, recombinant human VISTA (His-tagged); experiment: antigen-binding ELISA; HMBD-002 in F2, day 30 at 40°C

Sequence of human CTLA4 (P16410 36-162 limits assumed): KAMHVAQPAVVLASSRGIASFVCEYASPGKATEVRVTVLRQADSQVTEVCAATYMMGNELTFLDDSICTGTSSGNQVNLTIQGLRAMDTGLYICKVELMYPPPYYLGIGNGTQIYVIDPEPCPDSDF

Row | Binder | koff [1] [s⁻¹] | EC50 [2] [nM] | EC50 [3] [nM] | EC50 [4] [nM] | EC50 [5] [nM] | binding result (human CTLA4) | EC50 [6] [nM] | EC50 [7] [nM] | EC50 [8] [nM] | EC50 [9] [nM]
1 | anti-VISTA clone 4M2-C12 IgG1 (antibody, mouse variable regions on human IgG1/kappa constant regions; also called V4; V4pr) heavy: not shown light: DIVITQTPAILSTSPGEKVTMTCRASSSVGYIHWYQQKPGSSPKPWIYATSNLASGVPARFSGSGSGTSNSLTITRVEAEDAATYYCQQWSSYPPITFGGGTKLEVKRTVAAPSVFIFPPSDEQLKSGTASVVCLLNNFYPREAKVQWKVDNALQSGNSQESVTEQDSKDSTYSLSSTLTLSKADYEKHKVYACEVTHQGLSSPVTKSFNRGEC | < 4.54e-07 | – | – | – | – | – | – | – | – | –
2 | V4-C26 hIgG4 (antibody, human IgG4 (S228P)/kappa format; also called HMBD-002; HMBD-002-V4C26) heavy: not shown light: EIVLTQSPATLSLSPGERATLSCRASSSVGYIHWYQQKPGQAPRPIIYTTSNRATGIPARFSGSGSGTDNTLTISSLEPEDSAVYYCQQWSSYPPITFGGGTKLEVKRTVAAPSVFIFPPSDEQLKSGTASVVCLLNNFYPREAKVQWKVDNALQSGNSQESVTEQDSKDSTYSLSSTLTLSKADYEKHKVYACEVTHQGLSSPVTKSFNRGEC | – | 0.0527 | 0.0235 | 0.0186 | 0.0731 | no binding (tested: about 3e-8 M) | 67.6 | 0.0172 | 0.0281 | 0.0202

Reference: patent US20250313631A1 (HUMMINGBIRD BIOSCIENCE PTE, published 2025)
